Source: patent publication US9187525B2, “Methods of treating ophthalmic diseases using NPR-B agonists” (Shire Orphan Therapies GmbH, dated 2015)
Numbered stars: 1 amine (or outer) side, 2 acyl side, 3 side chain; on linkers, the order of the positions; unused ones are H or OH. Square brackets hold non-standard residues; d marks the D form. Primed or numbered codes have the meaning given here. Ends that are not written are not given here. * marks the point of attachment. Pro(trans-4-NH2) = O=C([C@@H]1C[C@@H](N[*:3])CN1[*:1])[*:2]; Sni = (S)-nipecotic acid, O=C([C@H]1CCCN([*:1])C1)[*:2]; Pro(trans-4-Ph) = O=C(O)[C@@H]1C[C@@H](c2ccccc2)CN1; Tyr(3-I) = N[C@@H](Cc1ccc(O)c(I)c1)C(=O)O; Cpp = rac-(3R,4S)-cis-methanoproline; dDap(Me2) = CN(C)C[C@@H](N)C(=O)O; Hyp = O=C(O)[C@@H]1C[C@@H](O)CN1; Gly(cPr) = N[C@H](C(=O)O)C1CC1; Aoc(2) = CCCCCC[C@H](N)C(=O)O; NMeL = CN[C@@H](CC(C)C)C(=O)O; Chg = N[C@H](C(=O)O)C1CCCCC1; Tle = CC(C)(C)[C@H](N)C(=O)O; Ac6c = NC1(C(=O)O)CCCCC1; Octanoyl = CCCCCCCC(=O)*; Thz = O=C(O)[C@@H]1CSCN1; Api = NC1(C(=O)O)CCNCC1; Pip′ = not defined here; dAze = O=C(O)[C@H]1CCN1; Oct = not defined here; GABA = NCCCC(=O)O

Target: T1, natriuretic peptide receptor-B (human)
T1 chain: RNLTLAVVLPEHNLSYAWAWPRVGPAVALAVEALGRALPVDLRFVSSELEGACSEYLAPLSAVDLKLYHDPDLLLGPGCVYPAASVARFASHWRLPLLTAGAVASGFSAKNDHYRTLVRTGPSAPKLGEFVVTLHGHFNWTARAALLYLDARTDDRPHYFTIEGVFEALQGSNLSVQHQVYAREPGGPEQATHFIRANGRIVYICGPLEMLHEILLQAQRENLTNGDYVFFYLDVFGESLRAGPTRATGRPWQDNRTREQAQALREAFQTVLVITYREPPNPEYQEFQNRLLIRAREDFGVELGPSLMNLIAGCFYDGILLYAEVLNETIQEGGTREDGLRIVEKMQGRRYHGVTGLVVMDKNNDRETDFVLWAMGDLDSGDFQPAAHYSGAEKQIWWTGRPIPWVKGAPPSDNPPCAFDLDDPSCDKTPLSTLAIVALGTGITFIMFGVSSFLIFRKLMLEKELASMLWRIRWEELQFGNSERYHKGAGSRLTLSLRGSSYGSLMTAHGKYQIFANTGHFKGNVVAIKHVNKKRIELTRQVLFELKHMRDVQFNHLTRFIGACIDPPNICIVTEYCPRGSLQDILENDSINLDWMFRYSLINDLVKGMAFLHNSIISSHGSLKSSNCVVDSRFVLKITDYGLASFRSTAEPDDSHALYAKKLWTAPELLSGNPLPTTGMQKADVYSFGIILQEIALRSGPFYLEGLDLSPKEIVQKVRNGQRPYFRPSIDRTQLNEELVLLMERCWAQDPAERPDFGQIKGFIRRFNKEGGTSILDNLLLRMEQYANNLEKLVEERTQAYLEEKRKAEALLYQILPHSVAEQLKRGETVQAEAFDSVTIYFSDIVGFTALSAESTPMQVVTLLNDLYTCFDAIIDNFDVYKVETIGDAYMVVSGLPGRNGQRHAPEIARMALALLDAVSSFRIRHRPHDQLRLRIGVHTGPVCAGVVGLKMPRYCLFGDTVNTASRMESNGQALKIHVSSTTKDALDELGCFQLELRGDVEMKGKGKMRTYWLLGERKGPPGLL
Test: cell-based or functional assay

Binder	EC50 group, cGMP in GTM-3 cells [µM]
Octanoyl-AFLL[Hyp][NMeL][Tle]RI-NH2 (also: lower-case ala, leu: meaning not given here) [JAL-1420]	≤ 15
Octanoyl-AFLL[Hyp][NMeL][Chg]RI-NH2 (also: lower-case ala, leu: meaning not given here) [JAL-1421]	≤ 15
Octanoyl-AFLL[Hyp][NMeL][Gly(cPr)]RI-NH2 (also: lower-case ala, leu: meaning not given here) [JAL-1424]	≤ 15
[Oct][Sni]F[dDap(Me2)]L[Hyp][NMeL]DRI-NH2 (reading uncertain; also: printed as Oct-Sni-Phe-dap(Me2)-Leu-Hyp-Nml-Asp-Arg-Ile-NH2) [JAL-1429]	≤ 1
[Tyr(3-I)][Aoc(2)]AFRL[Hyp][NMeL]DRI-NH2 (also: lower-case ala, arg: meaning not given here) [JAL-1430]	≤ 1
[Tyr(3-I)][GABA][Aoc(2)]AFRL[Hyp][NMeL]DRI-NH2 (also: lower-case ala, arg: meaning not given here) [JAL-1431]	≤ 15
Ac-[Tyr(3-I)][GABA][Aoc(2)]AFRL[Hyp][NMeL]DRI-NH2 (also: lower-case ala, arg: meaning not given here) [JAL-1432]	≤ 15
XXFGLKLDRI (HELM PEPTIDE1{[CCCCCC(=O)[*:2]].[O=C([C@H]1CC[C@H](CN[*:1])CC1)[*:2]].F.G.L.K.L.D.R.I.[am]}$$$$V2.0; SMILES CCCCCC(=O)NC[C@H]1CC[C@H](C(=O)N[C@@H](Cc2ccccc2)C(=O)NCC(=O)N[C@@H](CC(C)C)C(=O)N[C@@H](CCCCN)C(=O)N[C@@H](CC(C)C)C(=O)N[C@@H](CC(=O)O)C(=O)N[C@@H](CCCNC(=N)N)C(=O)N[C@H](C(N)=O)[C@@H](C)CC)CC1) [JAL-0653]	≤ 15
Octanoyl-AFRL[Hyp][NMeL]DPI-NH2 (also: lower-case ala, arg: meaning not given here) [JAL-1434]	≤ 5
Octanoyl-AF[Api]L[Hyp][NMeL]DPI-NH2 (also: lower-case ala: meaning not given here) [JAL-1435]	≤ 5
Octanoyl-[Sni]FLL[Hyp][NMeL]DPI-NH2 (also: lower-case leu: meaning not given here) [JAL-1436]	≤ 5
Octanoyl-AFLL[Hyp][NMeL]D[dAze]I-NH2 (also: lower-case ala, leu: meaning not given here) [JAL-1437]	≤ 5
Octanoyl-AFLL[Hyp][NMeL]D[Pip′]I-NH2 (also: lower-case ala, leu: meaning not given here) [JAL-1438]	≤ 5
Octanoyl-AFLL[Hyp][NMeL]D[Hyp]I-NH2 (also: lower-case ala, leu: meaning not given here) [JAL-1441]	≤ 15
Octanoyl-AFLL[Hyp][NMeL]D[Thz]I-NH2 (also: lower-case ala, leu: meaning not given here) [JAL-1442]	≤ 5
Octanoyl-AFLL[Hyp][NMeL]D[Cpp]I-NH2 (also: lower-case ala, leu: meaning not given here) [JAL-1443]	≤ 5
Octanoyl-AFLL[Pro(trans-4-NH2)][NMeL]DPI-NH2 (also: lower-case ala, leu: meaning not given here) [JAL-1450]	≤ 5
Octanoyl-AF[Api]L[Hyp][NMeL]DPI-NH2 (also: lower-case ala: meaning not given here) [JAL-1451]	≤ 5
XXFGLKLDRI (HELM PEPTIDE1{[CCCCCC(=O)[*:2]].[O=C(C1CCCN([*:1])C1)[*:2]].F.G.L.K.L.D.R.I.[am]}$$$$V2.0; SMILES CCCCCC(=O)N1CCCC(C(=O)N[C@@H](Cc2ccccc2)C(=O)NCC(=O)N[C@@H](CC(C)C)C(=O)N[C@@H](CCCCN)C(=O)N[C@@H](CC(C)C)C(=O)N[C@@H](CC(=O)O)C(=O)N[C@@H](CCCNC(=N)N)C(=O)N[C@H](C(N)=O)[C@@H](C)CC)C1) [JAL-0654]	≤ 15
Octanoyl-[dA]F[Api]L[Pro(trans-4-NH2)][NMeL]DPI-NH2 [JAL-1452]	≤ 1
Octanoyl-[dA]F[dDap(Me2)]L[Pro(trans-4-NH2)][NMeL]DPI-NH2 [JAL-1453]	≤ 1
Octanoyl-[dA]F[Ac6c]L[Pro(trans-4-NH2)][NMeL]DRI-NH2 [JAL-1454]	≤ 1
Octanoyl-[dA]F[dL]L[Hyp][NMeL]D[Pro(trans-4-Ph)]I-NH2 [JAL-1456]	≤ 15
Octanoyl-[dA]F[dL]L[Hyp][NMeL]D[Ac6c]I-NH2 [JAL-1457]	≤ 15
Octanoyl-[dA]F[dL]L[Hyp][NMeL]D[Api]I-NH2 [JAL-1458]	≤ 5
Octanoyl-[dA]F[dL]L[Hyp][NMeL]D[Pro(trans-4-NH2)]I-NH2 [JAL-1459]	≤ 15
Octanoyl-[dA]FXL[Pro(trans-4-NH2)][NMeL]DRI-NH2 (not fully specified (some residues); printed as Occ-ala-Phe-dap(6238)2-Leu-Tap-Nml-Asp-Arg-Ile-NH2) [JAL-1460]	≤ 5
Octanoyl-[dA]FXL[Pro(trans-4-NH2)][NMeL]DRI-NH2 (not fully specified (some residues); printed as Occ-ala-Phe-dap(6238)-Leu-Tap-Nml-Asp-Arg-Ile-NH2) [JAL-1461]	≤ 5
Octanoyl-[dA]FXL[Pro(trans-4-NH2)][NMeL]DRI-NH2 (not fully specified (some residues); printed as Occ-ala-Phe-dap(3846)2-Leu-Tap-Nml-Asp-Arg-Ile-NH2) [JAL-1462]	≤ 5
XXFGLKLDRI (HELM PEPTIDE1{[CCCCCC(=O)[*:2]].[O=C1[C@@H](N[*:1])CCCCN1CC(=O)[*:2]].F.G.L.K.L.D.R.I.[am]}$$$$V2.0; SMILES CCCCCC(=O)N[C@H]1CCCCN(CC(=O)N[C@@H](Cc2ccccc2)C(=O)NCC(=O)N[C@@H](CC(C)C)C(=O)N[C@@H](CCCCN)C(=O)N[C@@H](CC(C)C)C(=O)N[C@@H](CC(=O)O)C(=O)N[C@@H](CCCNC(=N)N)C(=O)N[C@H](C(N)=O)[C@@H](C)CC)C1=O) [JAL-0656]	≤ 15
